This series can be described thus: FE-SEM self-assembly. The class given is physicochemical. The conditions noted are these: HEPES pH 7.4, porphyrin 1.15 × 10^–3 M, peptide 2.3 × 10^–3 M, time of incubation 7 days.

With “RGDSGAITIGH [RGDSGAITIGH + Py3P-Lys-NTA + Ni^2+]”, the self-assembled nanostructure morphology entry is “porous fibrillar network”.

(Values after publication PMC8771699 (ACS Omega, 2022).)
